Test results as given in patent publication US20210025877A1 (CYTOMX THERAPEUTICS, published 2021).

Molecular target: T1, anti-PDL1 activatable antibody PL07-2001-C5H9v2 (intact)
T1 construct: In the Wes assay the sample is separated by SDS-based capillary electrophoresis before probing; also called AA
Experiment: Wes capillary electrophoresis immunoassay, mouse plasma

T1 sequence (heavy, as listed by the source, chain 1 of 2): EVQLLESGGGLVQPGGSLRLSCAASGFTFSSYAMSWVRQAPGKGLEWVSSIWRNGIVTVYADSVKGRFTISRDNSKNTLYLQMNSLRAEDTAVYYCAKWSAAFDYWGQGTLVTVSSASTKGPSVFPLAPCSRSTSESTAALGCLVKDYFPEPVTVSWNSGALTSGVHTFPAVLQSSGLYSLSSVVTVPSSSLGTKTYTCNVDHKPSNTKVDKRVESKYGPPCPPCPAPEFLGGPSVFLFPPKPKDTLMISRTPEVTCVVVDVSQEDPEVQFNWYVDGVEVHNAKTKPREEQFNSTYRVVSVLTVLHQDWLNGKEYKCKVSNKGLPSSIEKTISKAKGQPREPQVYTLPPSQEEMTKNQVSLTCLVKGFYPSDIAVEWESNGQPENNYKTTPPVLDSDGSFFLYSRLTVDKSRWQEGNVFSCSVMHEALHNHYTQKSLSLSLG
T1 sequence (light, as listed by the source, chain 2 of 2): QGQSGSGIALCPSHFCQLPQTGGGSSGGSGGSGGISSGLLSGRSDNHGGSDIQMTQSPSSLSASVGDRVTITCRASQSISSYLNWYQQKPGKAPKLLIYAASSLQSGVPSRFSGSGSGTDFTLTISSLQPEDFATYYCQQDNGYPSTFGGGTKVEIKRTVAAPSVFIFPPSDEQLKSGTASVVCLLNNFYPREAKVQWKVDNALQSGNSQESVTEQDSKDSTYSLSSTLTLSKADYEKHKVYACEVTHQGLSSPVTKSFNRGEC

binding result: binds
B1: anti-idiotypic antibody 17G1 (antibody, mouse IgG2a, kappa, V domains shown)
VH: EVQLVESGGDLVKPGGSLKVSCAASGFTFSSYGMSWVRQTPDKRLEWVATISPSGIYTYYPVTVKGRFTISRDNAKNTLYLQMSSLKSEDTAMYFCARHHPNYGSTYLYYIDYWGQGTALTVSS
VL: NIMMTQSPSSLAVSAGEKVTMACKSSQSVFSSSNQKNYLAWYQQKPGQSPKILIYWAFTRESGVPDRFSGSGSGTDFTLTISSVQAEDLAVYYCYQYLSSLTFGAGTKLEVKA
notes: Mouse monoclonal, mIgG2a heavy chain and mouse kappa light chain; also called anti-id antibody 17G1; anti-id 17G1 antibody
